This is an account of results in US20260242419A1, “A CYCLIC PEPTIDE FOR TRAPPING INTERLEUKIN-1 BETA” (Merck Sharp & Dohme LLC, priority 2023, published 2026).

Starred links: 1 amine or outer side, 2 acyl side, 3 side chain; linkers in the order of their positions; H or OH if unused. Non-standard residues stand in square brackets, D forms with d. F4bcpA = 3-[4-[(2S)-2-amino-2-carboxy-ethyl]phenyl]bicyclo[1.1.1]pentane-1-carboxylic acid, O=C([C@H](Cc1ccc(C23CC(C(=O)[*:3])(C2)C3)cc1)N[*:1])[*:2]; 3Pal4CO2H = 5-[(2S)-2-amino-2-carboxy-ethyl]pyridine-2-carboxylic acid, O=C([C@H](Cc1ccc(C(=O)[*:3])nc1)N[*:1])[*:2]; dPro(4R-(4-pyridylmethyl)) = O=C(O)[C@H]1C[C@@H](Cc2ccncc2)CN1; Ala(piperidin-4-yl) = O=C([C@H](CC1CCN([*:3])CC1)N[*:1])[*:2]; Trp(βS-Me,4-F) = C[C@@H](c1c[nH]c2cccc(F)c12)[C@H](N)C(=O)O; Bip(4'-COOH) = N[C@@H](Cc1ccc(-c2ccc(C(=O)O)cc2)cc1)C(=O)O; Ala(1-bicyclo(1.1.1)pentyl) = N[C@@H](CC12CC(C1)C2)C(=O)O; dPro(4R-Bzl(4-F)) = O=C(O)[C@H]1C[C@@H](Cc2ccc(F)cc2)CN1; Ala(morpholin-4-yl) = N[C@@H](CN1CCOCC1)C(=O)O; Ala(piperazin-1-yl) = N[C@@H](CN1CCNCC1)C(=O)O; Ala(pyrimidin-5-yl) = N[C@@H](Cc1cncnc1)C(=O)O; Phe(4-COOH) = N[C@@H](Cc1ccc(C(=O)O)cc1)C(=O)O; Pro(cis-4-F) = O=C(O)[C@@H]1C[C@H](F)CN1; cisHyp = O=C(O)[C@@H]1C[C@H](O)CN1; d(αMeD) = C[C@@](N)(CC(=O)O)C(=O)O; 4Pal = N[C@@H](Cc1ccncc1)C(=O)O; αMeS = C[C@](N)(CO)C(=O)O; Dab = NCC[C@H](N)C(=O)O; Dap = NC[C@H](N)C(=O)O; Aib = CC(C)(N)C(=O)O

B1: SEQ ID NO: 97 (peptide)
peptide: cyclo([Bip(4'-COOH)][Ala(1-bicyclo(1.1.1)pentyl)][Phe(4-COOH)]G[Pro(cis-4-F)][Trp(βS-Me,4-F)][αMeS]SW[Aib]SQ[Dab]G[dPro(4R-Bzl(4-F))])
SMILES: C[C@@H](c1c[nH]c2cccc(F)c12)[C@@H]1NC(=O)[C@@H]2C[C@H](F)CN2C(=O)CNC(=O)[C@H](Cc2ccc(C(=O)O)cc2)NC(=O)[C@H](CC23CC(C2)C3)NC(=O)[C@H](Cc2ccc(-c3ccc(C(=O)O)cc3)cc2)NC(=O)[C@H]2C[C@@H](Cc3ccc(F)cc3)CN2C(=O)CNC(=O)[C@H](CCN)NC(=O)[C@H](CCC(N)=O)NC(=O)[C@H](CO)NC(=O)C(C)(C)NC(=O)[C@H](Cc2c[nH]c3ccccc23)NC(=O)[C@H](CO)NC(=O)[C@](C)(CO)NC1=O
B2: SEQ ID NO: 96 (peptide)
peptide: cyclo([Bip(4'-COOH)][Ala(1-bicyclo(1.1.1)pentyl)][Phe(4-COOH)]G[Pro(cis-4-F)][Trp(βS-Me,4-F)][Aib]EW[Aib][Dap]QSG[dPro(4R-(4-pyridylmethyl))])
SMILES: C[C@@H](c1c[nH]c2cccc(F)c12)[C@@H]1NC(=O)[C@@H]2C[C@H](F)CN2C(=O)CNC(=O)[C@H](Cc2ccc(C(=O)O)cc2)NC(=O)[C@H](CC23CC(C2)C3)NC(=O)[C@H](Cc2ccc(-c3ccc(C(=O)O)cc3)cc2)NC(=O)[C@H]2C[C@@H](Cc3ccncc3)CN2C(=O)CNC(=O)[C@H](CO)NC(=O)[C@H](CCC(N)=O)NC(=O)[C@H](CN)NC(=O)C(C)(C)NC(=O)[C@H](Cc2c[nH]c3ccccc23)NC(=O)[C@H](CCC(=O)O)NC(=O)C(C)(C)NC1=O
B3: SEQ ID NO: 98 (peptide)
peptide: cyclo([Bip(4'-COOH)][Ala(1-bicyclo(1.1.1)pentyl)][3Pal4CO2H]G[Pro(cis-4-F)][Trp(βS-Me,4-F)][Aib]EW[Aib][Ala(pyrimidin-5-yl)]Q[Dab]G[dPro(4R-Bzl(4-F))])
SMILES: C[C@@H](c1c[nH]c2cccc(F)c12)[C@@H]1NC(=O)[C@@H]2C[C@H](F)CN2C(=O)CNC(=O)[C@H](Cc2ccc(C(=O)O)nc2)NC(=O)[C@H](CC23CC(C2)C3)NC(=O)[C@H](Cc2ccc(-c3ccc(C(=O)O)cc3)cc2)NC(=O)[C@H]2C[C@@H](Cc3ccc(F)cc3)CN2C(=O)CNC(=O)[C@H](CCN)NC(=O)[C@H](CCC(N)=O)NC(=O)[C@H](Cc2cncnc2)NC(=O)C(C)(C)NC(=O)[C@H](Cc2c[nH]c3ccccc23)NC(=O)[C@H](CCC(=O)O)NC(=O)C(C)(C)NC1=O
B4: SEQ ID NO: 99 (peptide)
peptide: cyclo([F4bcpA][Ala(1-bicyclo(1.1.1)pentyl)][Phe(4-COOH)]G[Pro(cis-4-F)][Trp(βS-Me,4-F)][Aib]EW[Aib][Ala(pyrimidin-5-yl)]Q[Dab]G[dPro(4R-Bzl(4-F))])
SMILES: C[C@@H](c1c[nH]c2cccc(F)c12)[C@@H]1NC(=O)[C@@H]2C[C@H](F)CN2C(=O)CNC(=O)[C@H](Cc2ccc(C(=O)O)cc2)NC(=O)[C@H](CC23CC(C2)C3)NC(=O)[C@H](Cc2ccc(C34CC(C(=O)O)(C3)C4)cc2)NC(=O)[C@H]2C[C@@H](Cc3ccc(F)cc3)CN2C(=O)CNC(=O)[C@H](CCN)NC(=O)[C@H](CCC(N)=O)NC(=O)[C@H](Cc2cncnc2)NC(=O)C(C)(C)NC(=O)[C@H](Cc2c[nH]c3ccccc23)NC(=O)[C@H](CCC(=O)O)NC(=O)C(C)(C)NC1=O
B5: SEQ ID NO: 128 (peptide)
peptide: cyclo([Bip(4'-COOH)][4Pal][Phe(4-COOH)]G[Pro(cis-4-F)][Trp(βS-Me,4-F)][Aib]SW[d(αMeD)][Ala(pyrimidin-5-yl)]Q[Dab]G[dPro(4R-Bzl(4-F))])
modifications: ring closure inferred; not fully specified (bridges); printed as Bip4CO2H-4Pal-Phe4COOH-G-Proc4F-SbMeW4F-Aib-S-W-daMeD-PyrimAla-Q-Dab-G-dProc4Bn4F
B6: SEQ ID NO: 127 (peptide)
peptide: cyclo([Bip(4'-COOH)][4Pal][Phe(4-COOH)]G[cisHyp][Trp(βS-Me,4-F)][Aib]SW[Aib][Ala(pyrimidin-5-yl)]Q[Dab]G[dPro(4R-Bzl(4-F))])
modifications: ring closure inferred; not fully specified (bridges); printed as Bip4CO2H-4Pal-Phe4COOH-G-Proc4OH-SbMeW4F-Aib-S-W-Aib-PyrimAla-Q-Dab-G-dProc4Bn4F
B7: SEQ ID NO: 129 (peptide)
peptide: cyclo([Bip(4'-COOH)][4Pal][Phe(4-COOH)]G[Pro(cis-4-F)][Trp(βS-Me,4-F)][αMeDab]SW[Aib][Ala(pyrimidin-5-yl)]Q[Dab]G[dPro(4R-Bzl(4-F))])
modifications: ring closure inferred; not fully specified (bridges); printed as Bip4CO2H-4Pal-Phe4COOH-G-Proc4F-SbMeW4F-aMeDab-S-W-Aib-PyrimAla-Q-Dab-G-dProc4Bn4F

The first assay addresses Recombinant human IL-1β (BioLegend 579404) (human, UniProt P01584 117-269). The assay is described as follows: cell-based or functional assay.
Turning to B1, the “MRC5 IC50” value was 0.036 nM. B2: the “MRC5 IC50” value was determined as 0.067 nM. Same read-out and setting: for B3 the value was 0.058 nM; for B4, 0.031 nM.

The target is the same in the next assay. The assay is described as follows: cell-based or functional assay. This is another data set of the same source.
Take B5: the “MRC5 IC50” value was 0.009 nM. As for cyclo([Bip(4'-COOH)][4Pal][Phe(4-COOH)]G[Pro(cis-4-F)][Trp(βS-Me,4-F)][Aib]EW[Aib][Ala(morpholin-4-yl)]Q[Dab]G[dPro(4R-Bzl(4-F))]) (ring closure inferred) [SEQ ID NO: 123], the “MRC5 IC50” value is 0.017 nM. Same read-out and setting: for cyclo([Bip(4'-COOH)][4Pal][Phe(4-COOH)]G[Pro(cis-4-F)][Trp(βS-Me,4-F)][Aib]EW[Aib][Ala(morpholin-4-yl)]QSG[dPro(4R-Bzl(4-F))]) (ring closure inferred) [SEQ ID NO: 125] the value was 0.041 nM; for cyclo([Bip(4'-COOH)][4Pal][Phe(4-COOH)]G[Pro(cis-4-F)][Trp(βS-Me,4-F)][Aib]EW[Aib][Ala(morpholin-4-yl)]QSG[dPro(4R-Bzl(4-F))]) (ring closure inferred) [SEQ ID NO: 124], 0.018 nM; for B6, 0.013 nM.

Take cyclo([Bip(4'-COOH)][4Pal][Phe(4-COOH)]G[Pro(cis-4-F)][Trp(βS-Me,4-F)][Aib]EW[Aib][Ala(piperazin-1-yl)]QSG[dPro(4R-Bzl(4-F))]) (ring closure inferred) [SEQ ID NO: 122]: the “MRC5 IC50” value was found to be 0.019 nM. On to cyclo([Bip(4'-COOH)][4Pal][Phe(4-COOH)]G[Pro(cis-4-F)][Trp(βS-Me,4-F)][Aib]EW[Aib][Ala(morpholin-4-yl)]Q[Dab]G[dPro(4R-Bzl(4-F))]) (ring closure inferred) [SEQ ID NO: 126], for which the “MRC5 IC50” value was determined as 0.022 nM.

For the molecule cyclo([Bip(4'-COOH)][4Pal][Phe(4-COOH)]G[Pro(cis-4-F)][Trp(βS-Me,4-F)][Aib]EW[Aib][Ala(piperidin-4-yl)]QSG[dPro(4R-Bzl(4-F))]) (ring closure inferred) [SEQ ID NO: 121], the “MRC5 IC50” value was 0.029 nM. Take B7: the “MRC5 IC50” value is 0.019 nM.
